Assay [1] has as its target microtubules grown from purified bovine brain tubulin (bovine) (UniProt Q6B856). Kind of assay: optical trap rupture force assay; untreated kinetochores on anti-penta-His beads; dynamic microtubules grown from coverslip-anchored GMPCPP seeds; BRB80, 1 mM GTP, 23°C; force ramp 0.25 pN/s until detachment.
Assay [2] has the same target. Kind of assay: optical trap rupture force assay; benzonase-treated kinetochores on anti-penta-His beads; dynamic microtubules grown from coverslip-anchored GMPCPP seeds; BRB80, 1 mM GTP, 23°C; force ramp 0.25 pN/s until detachment.

Chain of UniProt Q6B856 (Q6B856 whole entry, looked up): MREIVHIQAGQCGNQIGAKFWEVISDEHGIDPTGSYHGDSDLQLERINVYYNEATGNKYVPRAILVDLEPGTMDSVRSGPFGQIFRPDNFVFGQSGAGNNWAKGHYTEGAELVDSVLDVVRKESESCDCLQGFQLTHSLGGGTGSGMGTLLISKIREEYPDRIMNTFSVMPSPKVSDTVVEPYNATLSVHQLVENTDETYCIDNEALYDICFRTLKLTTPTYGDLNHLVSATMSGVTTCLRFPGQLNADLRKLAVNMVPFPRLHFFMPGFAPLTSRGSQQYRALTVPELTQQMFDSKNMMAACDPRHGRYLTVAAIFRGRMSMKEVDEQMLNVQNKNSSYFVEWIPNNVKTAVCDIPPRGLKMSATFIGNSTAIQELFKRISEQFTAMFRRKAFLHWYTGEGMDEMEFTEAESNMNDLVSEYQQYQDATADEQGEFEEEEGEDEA

Take “K. marxianus kinetochore particles purified via Dsn1-6His-3M3DK (from UniProt A0ABX6F0Z3 1-547) (complex)”: the median rupture force in assay [1] stood at 7.5 pN; in assay [2], 6.4 pN. With “S. cerevisiae kinetochore particles purified via Dsn1-6His-3M3DK (from UniProt P40568 1-576) (complex)”, the median rupture force in assay [1] is 7.2.

Values taken from publication PMC12045370.
